In the assay the target is CaMKIV. Briefly: cell-based or functional assay.

The molecule YGRKKRRQRRRKRPPKLGQIGRSKRVVIEDDR (modifications not checked) [tatCN21] came in with a kinase activity in a kinase panel, 5 µM tatCN21, reduction of 35%.
